Measured values: patent publication US20130096058A1 (AstraZeneca / MedImmune, published 2013)
Each block holds one binder with its values, some of them ahead of it.

Key:
[1] = molecular target: T1, cyno TRAIL R2-Fc (cynomolgus monkey (Macaca fascicularis)); assay: competition ELISA: F4 mod 1 coated, cyno TRAIL R2-Fc
T1 construct: The text prints 'cyno TRAIL R2' and 'cyno TRAIL R2-Fc' for the same ELISAs; also called cynomolgus TRAIL R2

[2] = molecular target: T1, cyno TRAIL R2-Fc; assay: competition ELISA: plate coated with F4 mod 1, cyno TRAIL R2-Fc, monomer titrated as competitor
[3] = molecular target: T1, cyno TRAIL R2-Fc; assay: competition ELISA: plate coated with F4 mod 1, 0.75 nM cyno TRAIL R2-Fc, purified monomer titrated as competitor
[4] = molecular target: endogenous TRAIL R2 expressed on the cell surface (human, UniProt O14763 56-440); assay: cell-based or functional assay

fold difference in binding between F4 mod 1 and F4 mod 12 [1]: ≤ 2 fold | IC50 [2]: 50 nM
B1: F4 mod 12 (designed binder)
chain: SQIEVKDVTDTTALITWAKPWVDPPPLWGCELTYGIKDVPGDRTTIGLQQKHNQYSIGNLKPDTEYEVSLICFDPYGLKSRPAKETFTTGLGTLGHHHHHHHH
notes: Germline-engineered F4 mod 1

fold difference in binding between F4 mod 1 and F4 mod 12 [1]: ≤ 2 fold | IC50 [2]: 34 nM | IC50 [3]: 34 nM
B2: F4 mod 1 (designed binder)
chain: AIEVKDVTDTTALITWAKPWVDPPPLWGCELAYGIKDVPGDRTTIGLQQKHTAYSIGNLKPDTEYEVSLICFDPYGLKSRPAKETFTTGGGTLGHHHHHHHH
notes: F4 with a D to G mutation two amino acids before the DE loop

Maximum Inhibition % (H2122) [4]: 91%
B3: A3 (1E11) (designed binder)
chain: SGGGGSAIEVKDVTDTTALITWAKPWVDPPPLWGCELAYGIKDVPGDRTTIDLQQKHTAYSIGNLKPDTEYEVSLICFDPYGAKSNPAKETFTTGGGGSGGGGSGGGGSAIEVKDVTDTTALITWAKPWVDPPPLWGCELAYGIKDVPGDRTTIDLQQKHTAYSIGNLKPDTEYEVSLICFDPYGAKSNPAKETFTTGGGGSGGGGSGGGGSAIEVKDVTDTTALITWAKPWVDPPPLWGCELAYGIKDVPGDRTTIDLQQKHTAYSIGNLKPDTEYEVSLICFDPYGAKSNPAKETFTTGGGGSGGGGSGGGGSAIEVKDVTDTTALITWAKPWVDPPPLWGCELAYGIKDVPGDRTTIDLQQKHTAYSIGNLKPDTEYEVSLICFDPYGAKSNPAKETFTTGGGGSGGGGSGTLGHHHHHHHH
